Experimental data taken from article PMC12157903.

Experiments:
[1] = target: Recombinant protein G; experiment: optical weak value amplification (WVA) sensor; recombinant protein G (50 µg/mL, 30 min) immobilised on polydopamine on the prism, surface blocked; 10 µg/mL antibody (mouse IgG) injected at 30 µL/min for 120 min; PBS, 25 °C; reference channel with PBS subtracted; curves fitted with the intraparticle diffusion model
[2] = target: Mouse Immunoglobulin G (mouse); experiment: optical weak value amplification (WVA) sensor; oriented strategy: mouse IgG captured on immobilised protein G; 30 µg/mL protein L injected until the signal was saturated (120 min); 25 °C

## Mouse Immunoglobulin G (antibody)
[1]
  Kid,1 (intraparticle diffusion rate constant, surface diffusion stage): 454 a.u.min^−1/2
  Kid,2 (intraparticle diffusion rate constant, intraparticle diffusion stage): 239 a.u.min^−1/2
  Kid,3 (intraparticle diffusion rate constant, intraparticle diffusion stage): 83.9 a.u.min^−1/2
  fold antibody immobilised, against random immobilisation on polydopamine: 2.27 fold

## Recombinant protein L
[2]
  fold binding sites, against randomly immobilised IgG: 1.59 times
